Values of other authors as cited in article doi:10.1101/2025.11.30.690581.

Columns and labels:
Lys92 = Lys92 (UniProt position 174, RGLAYKYADGK); assay: stability; settings: apparent pKa of the native-state ensemble in the reference Δ+PHS background
Lys66 = Lys66 (UniProt position 148, FTKKMKENAKK); assay: stability; settings: apparent pKa of the native-state ensemble in the reference Δ+PHS background

Substance | pKa (Lys92) | pKa (Lys66)
Staphylococcal nuclease Δ+PHS I92K (reference protein with Lys-92) (Staphylococcus aureus; G50F;V51N;P117G;H124L;S128A;del44-49;I92K) | 5.2 | 
Staphylococcal nuclease Δ+PHS V66K (reference protein with Lys-66) (Staphylococcus aureus; G50F;V51N;P117G;H124L;S128A;del44-49;V66K) |  | 5.7
